The values that follow are results of earlier work, collected in paper doi:10.1101/2024.03.27.586990.

This data set addresses Asp27 (UniProt position 27, WNLPADLAWFK). To be noted: unbound state (no inhibitor), as described by this article.

A word on the pKa: it is the pH at which an ionisable group is half protonated. In the case of “Dihydrofolate reductase (DHFR) (Escherichia coli)”, the pKa is reported as 6.5.
